The values below come from publication PMC10315472.

In one assay the target is AMSIN (actinomyces). The experiment in a line: SPR.
For assay [1], the target named is emorisin (Emergomyces orientalis). The assay is described as follows: SPR.

Regarding “Spike protein of the SARS-CoV-2 Omicron variant (from UniProt P0DTC2) (natural protein)”, in the assay with AMSIN (actinomyces), the Kd is 57.9 nM.

In the assay with AMSIN (actinomyces), “αRBD (from UniProt P0DTC2) (domain or fragment)” registered a Kd of 37.4 nM.

In the assay with AMSIN (actinomyces), “βRBD (from UniProt P0DTC2 319-541) (domain or fragment)” came in with a Kd of 310 nM, a koff of 0.00536 s⁻¹ and a kon of 17300 M⁻¹ s⁻¹. In assay [1], this substance had a Kd of 49.5 nM, a koff of 0.00561 s⁻¹ and an association rate constant (kon) of 11400 M⁻¹ s⁻¹.

In the assay with AMSIN (actinomyces), “δRBD (from UniProt P0DTC2 319-541) (domain or fragment)” registered a Kd of 76.6 nM, a koff of 0.0038 s⁻¹ and a kon of 49600 M⁻¹ s⁻¹. In assay [1], this substance yielded an equilibrium dissociation constant (Kd) of 31.6 nM, a koff of 0.00202 s⁻¹ and an on-rate constant (kon) of 64000 M⁻¹ s⁻¹.

As to “ζRBD (from UniProt P0DTC2) (domain or fragment)”, the Kd with AMSIN (actinomyces) stood at 1450 nM.

In the assay with AMSIN (actinomyces), “γRBD (from UniProt P0DTC2 319-541) (domain or fragment)” gave a Kd of 607 nM, a koff of 0.00545 s⁻¹ and a kon of 8970 M⁻¹ s⁻¹.
